Assay results published in US20240182553A1 (NANJING GENSCRIPT BIOTECH, published 2024).
Changes are numbered by the printed parent chain.

B1: hABTAA anti-Ang2 antibody (antibody, human IgG4 S228P, kappa, V domains shown)
VH: QVQLQESGPGLVKPSETLSLTCAVSGYSITSDYAWNWIRQPPGKGLEWMGKISYSGKTDYNPSLKSRSTISRDTSKNQFSLKLSSVTAADTAVYYCARGNFEGAMDYWGQGTLVTVSS
VL: DIQMTQSPSSLSASVGDRVTITCKASQSVSNDVAWYQQKPGKAPKLLIYYASNRYPGVPSRFSGSGSGTDFTLTISSLQPEDFATYYCQQDYSSPWTFGQGTKLEIKR
B2: hABTAA-VH-VLvegfr (bispecific antibody, human IgG4 S228P, kappa)
heavy chain: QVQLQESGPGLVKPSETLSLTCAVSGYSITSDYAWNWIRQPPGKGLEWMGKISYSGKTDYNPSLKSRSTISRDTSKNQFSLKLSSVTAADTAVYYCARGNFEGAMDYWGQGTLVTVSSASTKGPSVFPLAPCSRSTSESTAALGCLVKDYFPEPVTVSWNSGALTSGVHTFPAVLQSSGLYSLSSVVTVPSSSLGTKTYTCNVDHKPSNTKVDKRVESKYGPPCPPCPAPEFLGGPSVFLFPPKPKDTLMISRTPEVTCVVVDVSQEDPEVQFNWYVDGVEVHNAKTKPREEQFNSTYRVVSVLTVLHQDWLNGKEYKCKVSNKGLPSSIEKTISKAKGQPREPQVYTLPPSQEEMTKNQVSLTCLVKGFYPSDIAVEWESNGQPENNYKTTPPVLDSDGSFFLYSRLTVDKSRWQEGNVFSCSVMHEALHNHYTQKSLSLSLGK
light chain fusion polypeptide (VEGF-trap at C' of LC): DIQMTQSPSSLSASVGDRVTITCKASQSVSNDVAWYQQKPGKAPKLLIYYASNRYPGVPSRFSGSGSGTDFTLTISSLQPEDFATYYCQQDYSSPWTFGQGTKLEIKRTVAAPSVFIFPPSDEQLKSGTASVVCLLNNFYPREAKVQWKVDNALQSGNSQESVTEQDSKDSTYSLSSTLTLSKADYEKHKVYACEVTHQGLSSPVTKSFNRGECESKYGPPSPPSPSDTGRPFVEMYSEIPEIIHMTEGRELVIPCRVTSPNITVTLKKFPLDTLIPDGKRIIWDSRKGFIISNATYKEIGLLTCEATVNGHLYKTNYLTHRQTNTIIDVVLSPSHGIELSVGEKLVLNCTARTELNVGIDFNWEYPSSKHQHKKLVNRDLKTQSGSEMKKFLSTLTIDGVTRSDQGLYTCAASSGLMTKKNSTFVRVHEK
B3: hABTAA-VH-vegfrVL (bispecific antibody, human IgG4 S228P, kappa)
heavy chain: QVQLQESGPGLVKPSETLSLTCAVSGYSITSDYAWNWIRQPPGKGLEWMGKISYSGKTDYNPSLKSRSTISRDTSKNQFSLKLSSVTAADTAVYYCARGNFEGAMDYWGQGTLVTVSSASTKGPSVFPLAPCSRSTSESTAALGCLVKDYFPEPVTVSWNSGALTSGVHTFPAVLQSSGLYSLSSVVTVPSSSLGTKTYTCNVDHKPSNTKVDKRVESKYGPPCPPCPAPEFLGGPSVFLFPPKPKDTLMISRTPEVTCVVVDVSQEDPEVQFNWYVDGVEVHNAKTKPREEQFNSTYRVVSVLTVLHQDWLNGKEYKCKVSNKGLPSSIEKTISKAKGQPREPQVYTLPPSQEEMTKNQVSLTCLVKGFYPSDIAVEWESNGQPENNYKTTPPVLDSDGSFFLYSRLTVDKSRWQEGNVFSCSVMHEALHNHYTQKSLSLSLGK
light chain fusion polypeptide (VEGF-trap at N' of LC): SDTGRPFVEMYSEIPEIIHMTEGRELVIPCRVTSPNITVTLKKFPLDTLIPDGKRIIWDSRKGFIISNATYKEIGLLTCEATVNGHLYKTNYLTHRQTNTIIDVVLSPSHGIELSVGEKLVLNCTARTELNVGIDFNWEYPSSKHQHKKLVNRDLKTQSGSEMKKFLSTLTIDGVTRSDQGLYTCAASSGLMTKKNSTFVRVHEKGGGGSGGGGSGGGGSDIQMTQSPSSLSASVGDRVTITCKASQSVSNDVAWYQQKPGKAPKLLIYYASNRYPGVPSRFSGSGSGTDFTLTISSLQPEDFATYYCQQDYSSPWTFGQGTKLEIKRTVAAPSVFIFPPSDEQLKSGTASVVCLLNNFYPREAKVQWKVDNALQSGNSQESVTEQDSKDSTYSLSSTLTLSKADYEKHKVYACEVTHQGLSSPVTKSFNRGEC
B4: hABTAA-VHvegfr-VL (bispecific antibody, human IgG4 S228P, kappa)
heavy: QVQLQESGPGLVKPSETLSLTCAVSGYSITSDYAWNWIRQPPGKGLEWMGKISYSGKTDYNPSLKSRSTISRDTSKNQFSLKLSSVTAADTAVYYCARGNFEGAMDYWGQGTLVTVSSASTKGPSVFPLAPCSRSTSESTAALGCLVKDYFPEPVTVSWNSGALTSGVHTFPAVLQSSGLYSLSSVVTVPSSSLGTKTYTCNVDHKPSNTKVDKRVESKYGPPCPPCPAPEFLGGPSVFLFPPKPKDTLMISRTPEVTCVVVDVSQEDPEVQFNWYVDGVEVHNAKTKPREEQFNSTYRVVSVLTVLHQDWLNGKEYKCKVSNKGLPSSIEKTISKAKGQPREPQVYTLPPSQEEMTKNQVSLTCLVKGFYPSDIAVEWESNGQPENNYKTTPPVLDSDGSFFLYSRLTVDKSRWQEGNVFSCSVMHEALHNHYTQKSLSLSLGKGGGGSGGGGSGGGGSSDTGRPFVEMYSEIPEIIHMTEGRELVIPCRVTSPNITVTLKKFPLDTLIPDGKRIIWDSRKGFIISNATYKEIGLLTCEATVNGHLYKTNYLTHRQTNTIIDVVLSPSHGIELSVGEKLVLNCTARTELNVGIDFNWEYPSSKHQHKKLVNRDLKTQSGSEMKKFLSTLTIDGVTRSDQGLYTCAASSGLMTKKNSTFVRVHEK
light: DIQMTQSPSSLSASVGDRVTITCKASQSVSNDVAWYQQKPGKAPKLLIYYASNRYPGVPSRFSGSGSGTDFTLTISSLQPEDFATYYCQQDYSSPWTFGQGTKLEIKRTVAAPSVFIFPPSDEQLKSGTASVVCLLNNFYPREAKVQWKVDNALQSGNSQESVTEQDSKDSTYSLSSTLTLSKADYEKHKVYACEVTHQGLSSPVTKSFNRGEC
B5: 31E2D4-VH4-vegfr-VL1 (bispecific antibody, human IgG4 S228P, kappa)
heavy: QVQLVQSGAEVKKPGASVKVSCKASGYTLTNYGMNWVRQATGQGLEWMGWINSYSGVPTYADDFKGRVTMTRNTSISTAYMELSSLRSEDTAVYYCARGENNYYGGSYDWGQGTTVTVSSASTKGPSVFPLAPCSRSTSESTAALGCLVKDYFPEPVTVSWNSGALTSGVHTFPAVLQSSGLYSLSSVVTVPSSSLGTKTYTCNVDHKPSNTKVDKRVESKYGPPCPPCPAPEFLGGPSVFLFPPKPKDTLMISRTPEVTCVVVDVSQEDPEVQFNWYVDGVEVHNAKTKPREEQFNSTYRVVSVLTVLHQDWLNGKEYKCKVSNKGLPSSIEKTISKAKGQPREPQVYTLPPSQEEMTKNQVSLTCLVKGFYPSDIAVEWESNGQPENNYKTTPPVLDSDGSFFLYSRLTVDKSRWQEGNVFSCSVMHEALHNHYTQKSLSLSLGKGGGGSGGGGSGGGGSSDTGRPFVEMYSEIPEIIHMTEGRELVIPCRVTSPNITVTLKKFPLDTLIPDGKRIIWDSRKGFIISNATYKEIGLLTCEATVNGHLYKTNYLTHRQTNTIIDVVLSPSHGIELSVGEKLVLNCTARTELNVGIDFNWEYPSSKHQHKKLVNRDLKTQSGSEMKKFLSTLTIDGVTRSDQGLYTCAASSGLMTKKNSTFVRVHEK
light: B4 light with P56T, W96L, Q100G
B6: 7F10B2-VH3-vegfr-VL3 (bispecific antibody, human IgG4 S228P, kappa)
heavy: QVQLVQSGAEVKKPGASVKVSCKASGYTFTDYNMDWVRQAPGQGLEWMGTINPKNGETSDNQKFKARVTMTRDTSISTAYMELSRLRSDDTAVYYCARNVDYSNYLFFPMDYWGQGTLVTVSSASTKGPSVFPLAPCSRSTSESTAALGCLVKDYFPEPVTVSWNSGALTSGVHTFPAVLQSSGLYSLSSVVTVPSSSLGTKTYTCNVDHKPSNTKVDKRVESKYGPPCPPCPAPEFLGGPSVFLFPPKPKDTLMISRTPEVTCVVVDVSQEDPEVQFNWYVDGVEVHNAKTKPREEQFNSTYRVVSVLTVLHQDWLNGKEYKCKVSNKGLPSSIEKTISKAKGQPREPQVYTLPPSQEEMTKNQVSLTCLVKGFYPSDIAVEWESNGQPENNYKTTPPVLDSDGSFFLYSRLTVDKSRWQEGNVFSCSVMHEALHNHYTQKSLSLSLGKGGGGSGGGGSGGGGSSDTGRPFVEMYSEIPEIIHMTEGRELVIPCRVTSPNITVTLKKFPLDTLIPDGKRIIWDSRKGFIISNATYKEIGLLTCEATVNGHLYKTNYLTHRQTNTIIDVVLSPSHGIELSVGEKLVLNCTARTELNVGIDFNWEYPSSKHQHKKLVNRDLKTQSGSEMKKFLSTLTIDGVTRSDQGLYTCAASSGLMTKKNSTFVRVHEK
light: DIQMTQSPSSLSASVGDRVTITCKASQSVSNDVAWYQQKPGKAPKLLIYYASNRFTGVPSRFSGSGSGTDFTLTISSLQPEDFATYYCQQDYSSRTFGGGTKVEIKRTVAAPSVFIFPPSDEQLKSGTASVVCLLNNFYPREAKVQWKVDNALQSGNSQESVTEQDSKDSTYSLSSTLTLSKADYEKHKVYACEVTHQGLSSPVTKSFNRGEC
B7: 5F7D7-VH3-vegfr-VL5 (bispecific antibody, human IgG4 S228P, kappa)
heavy: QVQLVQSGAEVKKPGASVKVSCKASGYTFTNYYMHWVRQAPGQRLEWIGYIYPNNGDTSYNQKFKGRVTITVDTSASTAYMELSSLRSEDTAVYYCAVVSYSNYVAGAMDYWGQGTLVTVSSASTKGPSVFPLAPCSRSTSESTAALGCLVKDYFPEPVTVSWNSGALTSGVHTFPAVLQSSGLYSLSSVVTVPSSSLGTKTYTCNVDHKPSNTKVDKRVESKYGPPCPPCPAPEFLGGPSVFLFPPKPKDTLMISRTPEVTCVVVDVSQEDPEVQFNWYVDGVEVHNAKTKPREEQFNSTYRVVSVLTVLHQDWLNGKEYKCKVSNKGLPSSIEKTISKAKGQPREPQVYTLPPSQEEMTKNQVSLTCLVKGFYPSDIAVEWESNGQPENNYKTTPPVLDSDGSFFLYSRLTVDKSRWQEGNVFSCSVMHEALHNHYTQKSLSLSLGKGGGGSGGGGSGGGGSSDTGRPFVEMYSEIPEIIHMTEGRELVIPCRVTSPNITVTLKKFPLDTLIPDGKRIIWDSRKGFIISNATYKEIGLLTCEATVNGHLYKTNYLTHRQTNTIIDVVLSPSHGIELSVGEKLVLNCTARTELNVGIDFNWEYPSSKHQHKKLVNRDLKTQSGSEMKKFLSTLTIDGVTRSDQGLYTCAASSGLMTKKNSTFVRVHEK
light: B4 light with Y50F, P56T, S67Y, L73F, F83I, Y87F, W96Y, Q100G
B8: 7F10B2-VL3-vegfr-VH3 (bispecific antibody, human IgG4 S228P, kappa)
heavy: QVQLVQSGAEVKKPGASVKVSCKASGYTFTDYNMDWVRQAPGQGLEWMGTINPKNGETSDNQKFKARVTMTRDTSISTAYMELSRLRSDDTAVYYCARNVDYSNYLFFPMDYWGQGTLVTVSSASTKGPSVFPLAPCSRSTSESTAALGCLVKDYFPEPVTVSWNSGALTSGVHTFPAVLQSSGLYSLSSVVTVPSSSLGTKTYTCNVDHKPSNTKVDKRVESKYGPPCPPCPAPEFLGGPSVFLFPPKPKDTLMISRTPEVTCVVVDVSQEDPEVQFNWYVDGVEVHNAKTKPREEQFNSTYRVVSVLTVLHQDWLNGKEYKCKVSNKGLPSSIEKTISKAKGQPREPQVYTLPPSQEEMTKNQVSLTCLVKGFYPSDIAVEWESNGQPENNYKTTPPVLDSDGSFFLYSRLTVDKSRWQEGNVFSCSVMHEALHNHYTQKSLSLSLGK
light: DIQMTQSPSSLSASVGDRVTITCKASQSVSNDVAWYQQKPGKAPKLLIYYASNRFTGVPSRFSGSGSGTDFTLTISSLQPEDFATYYCQQDYSSRTFGGGTKVEIKRTVAAPSVFIFPPSDEQLKSGTASVVCLLNNFYPREAKVQWKVDNALQSGNSQESVTEQDSKDSTYSLSSTLTLSKADYEKHKVYACEVTHQGLSSPVTKSFNRGECESKYGPPSPPSPSDTGRPFVEMYSEIPEIIHMTEGRELVIPCRVTSPNITVTLKKFPLDTLIPDGKRIIWDSRKGFIISNATYKEIGLLTCEATVNGHLYKTNYLTHRQTNTIIDVVLSPSHGIELSVGEKLVLNCTARTELNVGIDFNWEYPSSKHQHKKLVNRDLKTQSGSEMKKFLSTLTIDGVTRSDQGLYTCAASSGLMTKKNSTFVRVHEK
B9: vegfr-5A7B9-VL1.1-VH3 (bispecific antibody, human IgG4 S228P, kappa)
heavy: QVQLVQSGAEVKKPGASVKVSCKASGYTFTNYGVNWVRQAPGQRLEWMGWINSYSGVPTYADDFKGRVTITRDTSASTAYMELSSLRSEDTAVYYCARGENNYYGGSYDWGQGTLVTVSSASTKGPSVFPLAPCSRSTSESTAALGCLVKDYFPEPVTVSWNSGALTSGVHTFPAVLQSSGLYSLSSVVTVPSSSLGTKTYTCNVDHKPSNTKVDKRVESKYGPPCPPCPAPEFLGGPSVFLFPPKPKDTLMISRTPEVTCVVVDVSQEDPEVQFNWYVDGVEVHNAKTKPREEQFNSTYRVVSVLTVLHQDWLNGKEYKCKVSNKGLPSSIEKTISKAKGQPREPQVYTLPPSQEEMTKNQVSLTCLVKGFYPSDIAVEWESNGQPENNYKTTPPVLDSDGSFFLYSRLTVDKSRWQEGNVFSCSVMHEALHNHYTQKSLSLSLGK
light: B3 light chain fusion polypeptide (VEGF-trap at N' of LC) with P276T, Y307F, W316L, Q320G

What follows are binders tested against T1, Ang2 protein (R&D system) (UniProt O15123 19-496) (assay: cell-based or functional assay).
T1 sequence (looked up): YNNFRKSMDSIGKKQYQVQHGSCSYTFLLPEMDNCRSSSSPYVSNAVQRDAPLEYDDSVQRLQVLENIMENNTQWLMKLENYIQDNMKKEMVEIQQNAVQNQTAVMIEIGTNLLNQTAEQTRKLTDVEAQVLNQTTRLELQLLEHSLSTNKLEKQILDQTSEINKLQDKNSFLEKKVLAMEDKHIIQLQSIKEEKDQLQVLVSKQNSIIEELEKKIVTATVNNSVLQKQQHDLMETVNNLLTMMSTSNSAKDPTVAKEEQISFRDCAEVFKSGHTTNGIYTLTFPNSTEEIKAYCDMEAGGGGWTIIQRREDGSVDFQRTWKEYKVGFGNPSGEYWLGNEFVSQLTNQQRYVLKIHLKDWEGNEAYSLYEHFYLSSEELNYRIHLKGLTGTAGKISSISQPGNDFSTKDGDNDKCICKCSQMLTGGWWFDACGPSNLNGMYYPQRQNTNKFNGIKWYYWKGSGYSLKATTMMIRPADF

| Binder | EC50 (phospho-Akt Ser473 HTRF dose-response, HUVEC + Ang2) [nM] | Span (phospho-Akt Ser473 HTRF dose-response, HUVEC + Ang2) |
| --- | --- | --- |
| B1 | 2.53 | 5590 HTRF ratio (665nm/620nm) |
| B2 | 3.25 | 5440 HTRF ratio (665nm/620nm) |
| B3 | 4.36 | 6380 HTRF ratio (665nm/620nm) |
| B4 | 883 | 14300 HTRF ratio (665nm/620nm) |
| B5 | 2.39 | 7380 HTRF ratio (665nm/620nm) |
| B6 | 2.59 | 7330 HTRF ratio (665nm/620nm) |
| B7 | ~2.12 | 7020 HTRF ratio (665nm/620nm) |
| B8 | 2.27 | 7460 HTRF ratio (665nm/620nm) |
| B9 | 4.72 | 7740 HTRF ratio (665nm/620nm) |
